Experimental findings from article PMC2819690 are described below.

Assay [1] deals with ΔN complex (Syb49–96:SyxH3:SNAP-25) (rat) (UniProt P63045). Put plainly: ITC.
For assay [2] the target is unchanged. Put plainly: fluorescence polarisation. A general note: Fluorescence polarisation rises when a labelled molecule tumbles more slowly, as on binding a larger partner.

Take “Syb F77A (from UniProt P63045 1-96) (domain or fragment)”: in assay [1], the dissociation constant (Kd) – broadly, the concentration at which binding is half-saturated – amounted to 0.8 nM and the dH is -18.8 kcal/mol.
Consider “Syb1–96 V39A, V42A, S28C, labeled (from UniProt P63045 1-96) (domain or fragment)”, for which the kon (usually the second-order rate constant of association) in assay [2] stood at 263000 M⁻¹ s⁻¹.
